Molecular target: the molecule itself
Test: SEC-MALS

B1: VACV protein N1 with C-terminal His6 tag (natural protein)
chain: MRTLLIRYILWRNDNDQTYYNDNFKKLMLLDELVDDGDVCTLIKNMRMTLSDGPLLDRLNQPVNNIEDAKRMIAISAKVARDIGERSEIRWEESFTILFRMIETYFDDLMIDLYGEK
stoichiometry N: 2
